The DeepSol protein solubility set

Experiment: soluble on expression in E. coli; label from the status in PepcDB or PDB records

Sequence | soluble on expression in E. coli
MGSDKIHHHHHHMEIKKGTWIIKKGFAEMFKGGVIMDVTSAEQAKIAEEAGAVAVMALERVPADIRKEGGVARMASIAKIREIMEAVSIPVMAKVRIGHIAEAKILEELGVDFIDESEVLTPADDRFHINKHEFKVPFVCGARDLGEALRRIAEGAAMIRTKGEAGTGNVVEAVKHMRRVMEQIKQVTKMEDEELVAYGKEIGAPVELLREVKRLGRLPVVNFAAGGVATPADAALMMMLGADGVFVGSGIFKSKDPRKMAKAMVLAVTYWDNPRILLKISEDIGEPMRGLDVEELEVRMQERGW | not soluble
MGSDKIHHHHHHMEIPPEILQSLIELGFTKYEVLTYWTLLVYGPSTAKEISIRSGIPYNRVYDTISSLKVRGFVTEIEGNPKVYAAYSPRIAFLRFKKELDEISEKLEKAISEVKREERCRPSIWRSHDFEEAIEMFKETLESSENEVIVVTPSEFFKSIRETLIGILDRGVTLSLYIDKVPDISDFEGRGNFFLRRFTKFNHLIGLADGKVVATIQNVSFMPPSPPSFKSTFKEIIFSQYSLTLEIFKESSLEVEQIMNPQDIRFFAVFHAADFVKRHLPSSTIFSEIVGRNVKTGEVEKLYGKVVGYTLSFREGVNNIQIETEKGIVKVGGMFAVIEDYESTNVRLMLES | not soluble
MGSDKIHHHHHHMEITSKTYLSTILGNDLAAGFYPTPLTEGNHLIQLLQMESERAYACFDPCCGEGTILRSFADAVKQVGIQLDTYGVELDANRYNKAKEQLDVVIRSSFESMMISHDYFPLIFLNPPYNTELRTEKKKSEKMEFNFLKRAHHYLQDGGIMVYVIPYDRFARDEISYFLAKNYEEIGLMRFGDENEEFEQFKQCVFIGRKRAATKNDTYFNDRFANFCENMSELDFVREHVNTLAQMVNRKSWTIPTLRNQNKLIFTSRVDYKDAYEGVGKSEGILTLKKRLNRGNGYSLQAEKTAAERAKMPIASGQLGLLLITGVADGLLGEGDTLHAVRGSENVFFETSFEKLETTTKEVVLQKRRAKFIIATPTGEVKELV | not soluble
MGSDKIHHHHHHMEIVLAKRAGFCFGVKRATQMAFEAAEKEGETFTLGPIIHSPQVVQRLEGMGVKVLSDLEGIGNGTVIIRSHGVTSAELEDAVRRQLEVVDATCPFVKKAQEHVKRLSHDGYTVVVVGDADHPEVQGIVSYAEGPVHVVGSGEEAARLPNMKKVGVVAQTTQSFETLKNVVKECLLKGGEIRVFNTICDATAVRQDEAKALAREVDCMIVIGGFNSANTKRLAEVCSELQPRTYHIETAQELDASWFQGVERVGVTAGASTPKWLIDEVIERIQEFDNKKKG | not soluble
MGSDKIHHHHHHMEKFGLKALVPLLKLEDKELSSTYDHSMTLGADLSSMLYSLGIPRDSQDHRVLDTFQSPWAETSRSEVEPRFFTPESFTNIPGVLQSTVTPPCFNSIQNDQQRVALFQDETLFFLFYKHPGTVIQELTYLELRKRNWRYHKTLKAWLTKDPMMEPIVSADGLSERGSYVFFDPQRWEKCQRDFLLFYNAIM | not soluble
MGSDKIHHHHHHMEKIIVNGRKNGQKIEIACSNLVMGAGDFLRADNMDFAGPVLDQYFEMGGNIFDTARHYRHSEKAIGAWMNMRGNRDSVIIQTKGGHPVREASDVPRVTPEAIHEDISVSLDTLQTDHVELFALHRDNPDVEVGSIMEAMHKEVEAGRVYAIGLSNWELSRIIEANEYAVNHGLTPLSFNSPNFSLAKVNRPRWENCVSANEEMIRWHEATNLPLFSWSSQAGGFFSGRFSEEDTSDTEMVEVYYSEANWERYSRAKQLANQKGCTPIQISLAYVLTQSFPTAAVIGPENTTELQSSVAAAGIKLTASEVDWLDLKA | not soluble
MGSDKIHHHHHHMEKILDLLMSFVKEDEGKLDLASFPLRNTTAGAHLLLKTENVVASGIEVSRMFLEKMGLLSKFNVEDGEYLEGTGVIGEIEGNTYKLLVAERTLLNVLSVMFSVATTTRRFAEKLKHAKIAATRKILPGLGVLQKIAVVHGGGDPHRLDLSGCVMIKDNHLKMYGSAERAVQEVRKIIPFTTKIEVEVENLEDALRAVEAGADIVMLDNLSPEEVKDISRRIKDINPNVIVEVSGGITEENVSLYDFETVDVISSSRLTLQEVFVDLSLEIQR | soluble
MGSDKIHHHHHHMEKQEIIEKLVELKDRLIEDVYQAYSRNTSDYGHERYNAWKKSVTKFLNQYIPNEVQRFNEKANPTYGVFLRRNGMSYHDFFWKTDGSAMNAYLESLILDIQNDDYDFTPINKEVQDVKTIPEAKSKKVLIVHGHDEAAKYRTEAFLRKHGFDPIILHLNASKGDTIIKKLERLAEGVGYGIVLYTPDDMGETKVKAVQHELQPRARQNVVFEHGYLMGLIGRPNVAAIVEGYVEKPSDIDGVVYIPSSNWEIDLLRELHEAGYPINPANL | not soluble
MGSDKIHHHHHHMEKSYWEQAHLQLPLKYTWKISRNASTEKINVIVFLCIDGRTYPGEAAPNVRYGESVELIDLQFKHFQTVWKDSLLQDEHAYNDVLDGLKLCQSLRFALESAYVHARCDKDPAFFERYTGIKMHTSPLATSYTLPIMDPGQIQEFIQTHDLTRFDTLKIKTGKEESKELIKTASRYFDKMIRVDANEAWTDPDLLIKELEELKRIPLEFIEQPFESAQKDAYKYFKKYSKIPVIADESITFAPDLKEIKELFHGVNMKLMKAGGYREGANILLKSKELGLKTMVGCMVETTLGIRSGMWISGHSDYIDLDGSFVIDNEPFKLVSENLGRLVIKQVNFFIEKWQK | not soluble
MGSDKIHHHHHHMEKYSAESIKVLKGLEPVRMRPGMYIGSTGKRGLHHLVYEVVDNSVDEALAGYCDWIRVTLHEDGSVEVEDNGRGIPVDIHPEEGRSALEVVFTVLHAGGKFSKDSYKISGGLHGVGVSVVNALSEWLEVRVHRDGKIYRQRYERGKPVTPVEVIGETDKHGTIVRFKPDPLIFSETEFDPDILEHRLREIAFLVPGLKIEFEDRINGEKKTFKFDGGIVEYVKYLNRGKKALHDVIHIKRTEKVKTKNGEDEVIVEIAFQYTDSYSEDIVSFANTIKTVDGGTHVTAFKSTLTRLMNEYGKKHNFLKKDDSFQGEDVREGLTAVISVYVKNPEFEGQTKSKLGNEEVKEAVTKAMREELKKIFDANPELVKTILSKIMSTKQAREAAKRAREMVRRKNVLQNTTLPGKLADCSSTHREKTELFIVEGDSAGGSAKQARDREFQAVLPIRGKILNVEKSSLDRLLKNEQISDIIVAVGTGIGDDFDESKLRYGRIIIMTDADIDGAHIRTLLLTLFYRYMRPLIEQGRVYIALPPLYRIKAGREEFYVYSDQELAEYKEKLQGKRIEIQRYKGLGEMNPEQLWETTMNPETRKIIRVTIEDAEEADRLFEILMGNDPSSRREFIERHALKVKELDI | not soluble
MGSDKIHHHHHHMELQVFTNEQFGEVRTATINNQIYFNLNDCCQILELSNPRKTIERLNKDGVTTSDIIDSLGRTQQANFINESNFYKLVFQSRKPEAEKFADWVTSEVLPSIRKHGAYMTEQTLEQALTSPDFLIRLANELKEEKERSRQLEAEKSILSVENMVMKPKADYFDDLVDRNLLTSFRETAKQLKVKERRFIQFLLDKKYVYRDKKGKLMPFADKNNGLFEVKESVNEKTNWAGTQTLITPKGRETFRLLFI | not soluble
MGSDKIHHHHHHMELSQNAPNELEYIREFLNTWRIPNDTREAIDLLQTEEDIKLFMKEYFHEEFPFHTIEELKSFREDIRMTIEGEGSLEKWLEKYPFHVYIKEDMKGITYEPIHEETVYTKVLSIVLIAVQENLWGRLKACPDCRWVFYDNSRNGSKRWCGMYAGEEGGRACGTIAKVKNYRAKRKGRSGYNV | not soluble
MGSDKIHHHHHHMELVKFGKLKEQSYTMKESLRALKTNIQFCGDDIRTLLVTSSVPNEGKSTVALDLARSLTESGNRVLFIDTDMRKSVLAGRLRATAASGGEICGLSHYLSGQRRLEEVMYGTEIPGLFMIFAGPSVPNPTEILEKKYFQELLNFGKEHFNYIIIDCAPIGAAIDAAVVAKYCDGAIIVIGQGMASARMIQSVKKQLEASGVRILGAVLNKVNNKKNSHVSGYYGNYYGSYYGRSDKA | not soluble
MGSDKIHHHHHHMENGEMIKVLLANPRGFCAGVDRAIEIVERALSVHGAPIYVRHEVVHNRFVVEDLEKKGAVFVENLDEVPAGSILIFSAHGVSHAVRREAEAGQFKVFDATCPLVTKVHIEVAKMRDQGREIIMIGHAGHPEVEGTMGQAEGDGPSMYLVETEEDVEKLQVQDPAHLAYVTQTTLSVDDANRVIQALKGRFPNILGPKKDDICYATQNRQDAVKTMVKQCDLVIVVGSPNSSNSNRLCEVARNAGVDAYMLDRAEQLQEAWLKGKMRIGITAGASAPEVLVQEVISRLRQIVSEQAEREVVVEELRGVVESVVFPLPRN | not soluble
MGSDKIHHHHHHMENKVKTVAVFSGYYLPFLGGIERYTDKMTADLVKRGYRVVIVTTNHGDLPIIDEDKGRKIYRLPTKNIVKQRYPIINKNREYNTLMKYVSDENIDFVICNTRFQLTTLEGLSFAKNHHLPSIVLDHGSSHFSVNNRFLDFFGAIYEHLLTARVKHYRPDFYAVSKRSVEWLKHFNIEAKGVIYNSVSESLGSDFAGTAYLEKSADDIFITYAGRIIKEKGIELLLEAFSMSQYSENVYLQIAGDGPELAHLKEKYQSKQINFLGKLNFEQTMSLMAQTDIFVYPSMYPEGLPTSILEAGLLSSAIIATDRGGTVEVIDSPELGIIMEENTQSLHESLDLLVKDKALREKLQQNIAKRIKEHFTWEKTVEKLDYIIQKN | not soluble
MGSDKIHHHHHHMENQPNTRSMIFTLYGDYIRHYGNVIWIGSLIRFLQEFGHNEQSVRAAVSRMSKQGWIQSEKKGNKSYYSLTDQGRKRMAEAAQRIYKLEAPSWDEKWRLLIYSIPEEKRSLRDELRKELVWSGFGLLANSCWITPNPLEEQVETLIEKYEISPYVHFFCADYRGMGEPKTLIEKCWDLDEINEKYLAFIQKYSQKYVIDKNKIEKGEMSDGACFVERTLLVHEYRKFLFIDPGLPQELLPEKWLGDSAAHLFADYYRTLAEPARRFFESVFAEGNSLVKKDKEYNFLDHPFMSESQS | not soluble
MGSDKIHHHHHHMEPNDAVVGVDVSKEHLDVYLMPTGDQKRVTNDDAGCAELTTWLITNAPCRIVLEATGGLEMLAVSTLSAAGLPVVVVNPRQVRNFAKACGLLAKTDILDAKIIARFAQAIKPEIRPLKDETSQNLAALLARRRQLVEMLVAEKNRVISAAPTVRKGIMTHIAWLTQQIDDVDKDISTLIQSSESWKAKEEILTSVKGIGPVTAATILAALPELGTISRQQLGALVGVCPYNRDSGKFRGKRAISGGRATVRSVLYMATLCAARFNPVIKAFYQRLTSAGKLHKVAITACMRKLLTILNAMVKNNQKWDHSKFTPLLH | not soluble
MGSDKIHHHHHHMERIVDTADGRFDTRLTGTGNVTFILDHGMMSSHYQWGWLRGELLKQGRVFEYSRLGYGRSTRGKTKRLFTRQADELERVLALLDIKGPFVFIGHSLGAYISLELGRRRPDETAGIVLLDPSHPEVDAELPNWYERTQEEWNRFLYVLSHVRPLAWLIPDDLGARMFTSLPEADRIPMWRNMARKNHWRGTLDEWQAVEANNQHVLEVVEHIVPPVLVLSASDWAGGMPENWLNPELTKRINAAHERFAASLPDAAFHVIPNTNHYTIAGFSEEAATTIVSLIRNAFFK | not soluble
MGSDKIHHHHHHMERPTGVYFQTMTMKQIRERLKQCDLIIIPVGSTENHGPNAPTGEDTFLVTRMAEQVALKTGCTVAEPIWYGYHPYHHIGMPGTVPVKDEAFIDYLVSVIAGFWNTGFRKQILLNGHGQEFVIPIAIHKFAKIFQVPAIIINLNWYHAIQDKFKTKEEGGPYETPFIHADEVETSWSLALFPEFMHQEWAVDTEPKGFLPEGHIDKAGNLLHRPIAWYGHVGGGPIEVVAYPEGVVGKATLASAEKAKEGVEALLDYLEKLVRDIMERFPAGKLPPAEMLSQRPKEELEALTKEPLTEGWRNLYTAGNLWG | not soluble
